The data set addresses SpyCas9 (Streptococcus pyogenes, UniProt Q99ZW2 1-1368). Briefly: EMSA. (In EMSA bound probe runs differently from free probe, usually more slowly.)

SpyCas9, sequence (Q99ZW2 whole entry): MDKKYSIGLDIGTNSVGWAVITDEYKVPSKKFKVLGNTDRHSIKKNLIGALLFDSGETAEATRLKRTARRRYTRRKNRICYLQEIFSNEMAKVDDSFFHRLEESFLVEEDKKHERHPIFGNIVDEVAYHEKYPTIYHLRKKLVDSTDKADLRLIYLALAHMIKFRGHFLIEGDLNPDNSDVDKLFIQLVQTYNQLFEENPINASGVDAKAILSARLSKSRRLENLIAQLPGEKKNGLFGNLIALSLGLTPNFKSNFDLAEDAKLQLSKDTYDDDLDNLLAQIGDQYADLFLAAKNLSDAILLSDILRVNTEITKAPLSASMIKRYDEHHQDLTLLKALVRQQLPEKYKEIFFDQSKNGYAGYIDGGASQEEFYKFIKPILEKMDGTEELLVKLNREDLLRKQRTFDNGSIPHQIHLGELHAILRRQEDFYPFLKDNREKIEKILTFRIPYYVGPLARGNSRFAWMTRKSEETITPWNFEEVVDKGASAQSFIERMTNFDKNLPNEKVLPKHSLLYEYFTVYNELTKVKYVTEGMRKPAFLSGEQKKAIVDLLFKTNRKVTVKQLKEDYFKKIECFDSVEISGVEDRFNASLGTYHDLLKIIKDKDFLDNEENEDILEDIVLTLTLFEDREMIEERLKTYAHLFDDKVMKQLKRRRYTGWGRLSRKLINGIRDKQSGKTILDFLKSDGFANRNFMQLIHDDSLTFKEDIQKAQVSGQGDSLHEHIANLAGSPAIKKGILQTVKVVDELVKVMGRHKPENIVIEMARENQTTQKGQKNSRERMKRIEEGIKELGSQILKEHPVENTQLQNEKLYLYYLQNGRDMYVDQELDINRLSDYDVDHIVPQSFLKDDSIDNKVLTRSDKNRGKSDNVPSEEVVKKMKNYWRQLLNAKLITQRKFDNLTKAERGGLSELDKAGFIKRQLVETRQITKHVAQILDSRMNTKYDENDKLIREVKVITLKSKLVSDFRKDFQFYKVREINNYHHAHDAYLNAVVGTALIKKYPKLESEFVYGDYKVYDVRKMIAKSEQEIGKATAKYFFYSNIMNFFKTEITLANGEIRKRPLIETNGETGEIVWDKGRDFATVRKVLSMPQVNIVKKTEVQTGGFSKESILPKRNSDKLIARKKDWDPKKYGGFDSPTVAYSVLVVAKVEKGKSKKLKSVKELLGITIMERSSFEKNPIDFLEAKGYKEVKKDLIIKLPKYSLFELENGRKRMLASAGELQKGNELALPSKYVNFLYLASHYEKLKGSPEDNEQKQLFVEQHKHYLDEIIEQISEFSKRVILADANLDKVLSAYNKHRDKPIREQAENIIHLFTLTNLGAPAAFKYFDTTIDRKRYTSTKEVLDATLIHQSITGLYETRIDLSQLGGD

B1: sgRNA (20 nt spacer) + FAM target DNA 38 bp (mixed)
DNA 1: ATTGCCGTCAGGAAATTAGGTGCGCTTAGCTGGTATTG
DNA 2: CAATACCAGCTAAGCGCACCTAATTTCCTGACGGCAAT
As for B1, the binding result was “binds”.

Source of the values: publication PMC8754659.
